According to paper PMC3121763:

Experiments:
[1] = molecular target: 6xHis-tagged Gifsy-1 prophage repressor GfoR (Salmonella enterica serovar Typhimurium strain ATCC14028, prophage Gifsy-1); test: SEC; Sephadex G75 column in IPE buffer (Tris-HCl 20 mM pH 8, NaCl 500 mM, Igepal 0.1%, imidazole 250 mM); about 10 ug of Ni-NTA-purified repressor (cells grown without arabinose) or co-expressed, co-purified repressor-antirepressor complex (with arabinose); calibrated with alpha-chymotrypsin, ovalbumin and BSA; fractions on SDS gel
[2] = system: T1, GtgR (Gifsy-2 phage repressor; also written GftR) (Salmonella enterica ATCC14028, Gifsy-2 prophage), ORF:1b72f8f1; test: EMSA; details: 20 mM Tris-HCl pH 7.5, 50 mM NaCl, 0.2 mM EDTA (5x stock in Methods: 1 mM), 1 mM MgCl2, 5% glycerol, PMSF, 50 ug/mL sonicated salmon sperm DNA; room …
T1 sequence: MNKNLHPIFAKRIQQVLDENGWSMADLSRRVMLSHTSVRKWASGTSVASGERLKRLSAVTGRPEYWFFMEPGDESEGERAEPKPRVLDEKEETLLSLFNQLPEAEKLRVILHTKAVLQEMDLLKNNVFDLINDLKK

Which stoichiometry N (GfoA per GfoR (2:2)) [1] does the source give for “3xFLAG-tagged Gifsy-1 antirepressor GfoA (natural protein)” here?
The stoichiometry N (GfoA per GfoR (2:2)) was 1.

“6xHis-tagged Gifsy-1 prophage repressor GfoR (natural protein)” was tested. Which stoichiometry N [1] did it give?
The stoichiometry N was 2.

For “GTTCGCCGATGCTCATTTGAGTCATGTGGTTACTGATTTTGATTTTTAATTGGTTGTCCATTTGGCTCTCCAGTTCTACGAGTTGGTAGCTGGAGATTATCACGTAAAACTTTAGGTTCCAACAAAAATCAATCTAATAGTTCCAATGAATAAAGAAACTGAAGGTTGTAAAATGTGAATATGAACAAAAATCTTCATCCCATTTTCGCCAAGCGTATCCAGCAAGTTCTGGATGAGAACGGCTGGTCTATGGCTGACCTCTCACGG (double strand) [Gifsy-2 right operator fragment (267 bp)]”, which binding [2] is on record?
The binding was “binds”.
